Patent EP4763867A1 (Shanghai Mabgen Biotech Ltd., dated 2026)
Read-outs that look alike come from different tables or passages of the source. Blank lines part the entries; values can stand above or below the binder they belong to.

Legend:
[1] = target: T1, human PD-1 (SEQ ID NO: 1) expressed on cells (human, UniProt Q15116 25-288); test: cell-based or functional assay
[2] = target: T2, IL-2Rβ and IL-2Rγ on M07e cells (moderate-avidity IL-2 receptor IL-2Rβγ) (human, UniProt P14784 27-551; P31785 23-369); test: cell-based or functional assay
T2 sequence (looked up) 1: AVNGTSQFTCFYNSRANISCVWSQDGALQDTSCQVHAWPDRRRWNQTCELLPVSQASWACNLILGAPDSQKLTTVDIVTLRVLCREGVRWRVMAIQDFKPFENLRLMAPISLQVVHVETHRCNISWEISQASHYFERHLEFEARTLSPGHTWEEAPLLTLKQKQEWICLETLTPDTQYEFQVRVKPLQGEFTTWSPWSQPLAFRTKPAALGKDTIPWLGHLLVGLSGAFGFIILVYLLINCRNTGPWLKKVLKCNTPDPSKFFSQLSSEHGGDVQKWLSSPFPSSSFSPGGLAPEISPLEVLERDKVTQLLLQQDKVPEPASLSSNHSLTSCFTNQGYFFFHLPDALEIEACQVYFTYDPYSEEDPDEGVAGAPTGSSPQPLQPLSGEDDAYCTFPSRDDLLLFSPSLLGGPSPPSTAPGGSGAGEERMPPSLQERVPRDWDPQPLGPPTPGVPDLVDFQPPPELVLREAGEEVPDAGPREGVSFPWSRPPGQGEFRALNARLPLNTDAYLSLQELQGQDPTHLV
T2 sequence (looked up) 2: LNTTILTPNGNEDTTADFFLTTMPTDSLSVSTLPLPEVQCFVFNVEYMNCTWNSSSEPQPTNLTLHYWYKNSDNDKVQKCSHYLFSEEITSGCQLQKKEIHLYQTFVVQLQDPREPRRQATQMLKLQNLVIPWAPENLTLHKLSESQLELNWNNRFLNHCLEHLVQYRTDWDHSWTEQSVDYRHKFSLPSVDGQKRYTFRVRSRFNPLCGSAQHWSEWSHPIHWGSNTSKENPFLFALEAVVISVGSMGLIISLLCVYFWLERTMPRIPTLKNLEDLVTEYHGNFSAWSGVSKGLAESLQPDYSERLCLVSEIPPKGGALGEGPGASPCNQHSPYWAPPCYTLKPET

[3] = target: T1, human PD-1 (SEQ ID NO: 1) expressed on …; test: cell-based or functional assay; remark: listed apart in the source
[4] = target: T3, Biotinylated human PD-1 (AcroBiosystems, PD1-H82E4) (human, UniProt Q15116 25-167, biotinylated (site not stated)); test: screening of a VHH yeast display library with biotinylated antigens
T3 construct: Screening antigen of the yeast display library; also called human PD-1 antigen (screening antigen)
T3 sequence (Q15116 25-167 limits assumed): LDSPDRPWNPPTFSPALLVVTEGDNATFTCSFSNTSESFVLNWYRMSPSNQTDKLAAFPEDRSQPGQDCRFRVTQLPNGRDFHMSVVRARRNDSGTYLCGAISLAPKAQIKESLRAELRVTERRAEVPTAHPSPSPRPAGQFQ

T1 sequence (Q15116 25-288 limits assumed): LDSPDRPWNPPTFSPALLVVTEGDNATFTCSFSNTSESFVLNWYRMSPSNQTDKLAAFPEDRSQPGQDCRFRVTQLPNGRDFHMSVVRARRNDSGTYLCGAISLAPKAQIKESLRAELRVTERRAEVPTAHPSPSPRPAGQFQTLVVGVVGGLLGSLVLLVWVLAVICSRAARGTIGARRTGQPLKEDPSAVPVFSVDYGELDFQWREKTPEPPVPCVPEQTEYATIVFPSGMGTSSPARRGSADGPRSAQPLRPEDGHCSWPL

M07e proliferation, EC50 [2]: 20.9 nM
M07e-hPD1 proliferation, EC50 [2]: 13.3 nM
B2: PEGylated IL-2 mutant (PEG-IL-2v) (ligand)
chain: APASSSTKKTQLQLEHLLLDLQMILQGISNYKNPKLTRMLTAKFYMPKKATELKHLQCLEEELKPLEEVLQGAQSKNFHLRPRDLISNINVIVLELKGSETTFMCEYADETATIVEFLNRWITFAQSIISTLT
modifications: PEGylated (site and PEG not stated)

binding result [4]: binds
B4: A17 (VHH)
VHH: EVQVVESGGGLVQPGGSLRLSCVASGLTFSDYSMSWYRQAPGKERELVAIISGSGVIAHYVDSVKGRFTISRDNAKSTVYLQMVSLKPEDRGVYYCRAVSDWDDYWGQGTQVTVSS
notes: also called Variable region of A17

Second part, the binder before the results:

B1: A17m0902_hIgG4 (antibody, V domains shown)
VH: EVQLVESGGGLVQPGGSLRLSCAASGLTFSDYSMSWYRQAPGKGRELVAIISGSGVITHYVDSVKGRFTISRDNAKNTLYLQMRSLRAEDTAVYYCRAVSDWEDYWGQGTQVTVSS
activity IC50, PD-1/PD-L1 NFAT reporter gene system [1]: 0.435 nM

B3: A17_hIgG4 (antibody, V domains shown)
VH: B4 VHH
activity IC50, PD-1/PD-L1 NFAT reporter gene system [3]: 1.2 nM
